From patent US5885797

B1: I-mfb (protein)
chain: MSQVSGQCPSRCDAPHGVPSAALDPAQTMSLLPGLEVARSTHPVEASSEEGFPEEAAPSMPHDSGLRAQQALNSIDLDVPTEAVTCQPQGNPQGCTPLLPNGSSHDHLSEPGSAGHAGNGALGGSKAHRKLQTHPSLGSQAGRKSRGSARSASQVPLQAQEGKAPAVRIHRQTASPTCCLRNAQLSGTALRSLRLESQGHRELNNKTLSQSNNKKPGVAAHAAIIPALTRPKQNCHDPSLLPGTHGVGKEF
B2: I-mfa (protein)
chain: MSQVSGQCPSRCDAPHGVPSAALDPAQTMSLLPGLEVARSTHPVEASSEEGFPEEAAPSMPHDSGLRAQQALNSIDLDVPTEAVTCQPQGNPQGCTPLLPNGSSHDHLSEPGSAGHAGNGALGGSKAHRKLQTHPSLGSQAGRKSRGSARSASQVPLQAQEDCCVHCILSCLFCEFLTLCNILLDCATCGSCSSEDSCLCCCCCGSGECADCDLPCDLDCGIVDACCESADCLEICMECCGLCFSS
B3: I-mfc (protein)
chain: MSQVSGQCPSRCDAPHGVPSAALDPAQTMSLLPGLEVARSTHPVEASSEEGFPEEAAPSMPHDSGLRAQQALNSIDLDVPTEAVTCQPQGNPQGCTPLLPNGSSHDHLSEPGSAGHAGNGALGGSKAHRKLQTHPPQPPNRSAFRRVAWSPPRVTRNTASRAW

Target: E12

Binder	Relative CAT Activity (%), p4R-TK-CAT, NIH3T3 [%]
B1	98.7
B2	76.3
B3	93.8
